Results as given in PMC7377350.

Target: T1, CREB B-ZIP domain (UniProt P16220 269-327)
T1 sequence: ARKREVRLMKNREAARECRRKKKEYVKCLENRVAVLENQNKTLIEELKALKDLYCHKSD
Test: EMSA

B1: CREB (CRE) 28-mer (dsDNA)
DNA 1: GTCAGTCAGATGACGTCATATCGGTCAG
DNA 2: CTGACCGATATGACGTCATCTGACTGAC
B1: binds.
